assay: yeast display, Sf9 membrane polyspecificity reagent, FACS + sequencing; frameworks hold sequencing errors
In short: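 Polyreactivity labels are assigned by the sorting gate from which each nanobody was recovered. The gates were low and high (top ~1%), set on anti-HA fluorescence for expression and streptavidin fluorescence for reagent binding. Before sorting, galactose-induced (36–48 hours) yeast display cells were stained for 1 hour at 4 °C with 10% biotinylated, detergent-solubilized Sf9 membrane reagent.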

Row | Sequence | polyreactivity (PSR sort gate)
1 | QVQLVESGGGLVQAGGSLRLICAASGSTFLKYTMVWYRQAPWKERELVAAISKSGGSTYYADSVKGRFTISRDHAKNTVYLQMNSLKPEDTAVYYCAKVRSWVSSYGYGYWGQGTQVTVSS | high polyreactivity
2 | QVQLVESGGGLVQAGGSLSLICAASGGTFYKYAMGWYRQAPGKERELDAAISRSGGSTYYADSVKGRFTISRDNAKNTVYLQINRLKPEDTAVYYCKAYGSYWDFDYWGQRTQVTVSS | high polyreactivity
3 | QVQLVESGGGLVQAGGSLRLSCAASGRNFGPYAMGWYRQAPGKERELVAVISTRGGITNYADSVKGRFTISRDTAKNTVYVQLNSLKPEDTAVYYCAARFSYPYRIAFNYWGQGTQVTVSS | low polyreactivity
4 | QVQLVESGACLVQAGGSLRLSFAASGSIFGWYTMGWYRPAPGKERELVAAISNSGTSSYYADSEKGRFTISRDTAKNTVYLQMNSLKPEDTAVYYCNAYSDLFGSYTDLGEYDYWVQGTQVTVSS | low polyreactivity
5 | QVQLVESGGGLVQAGGSLRLSCAASGSILWLYVMGWYRQAPGKERELVATITSSGGSTYYADSVKGRFTISRDNAKNTVYLQKNSLKPEDTAVYYSAAQTYNSYDYWGQATQVTVSS | low polyreactivity
6 | QVQLVDSGGGLVQAGGSLRLSCAASGITFYYYAMGRYIQAPGKERELVAAISWSGGSTYYADSVKGRFTISRDNAKNTVYLPMNSLIPEDTAVYYCAATPYQYHDGGYWGQGTQVTVSS | high polyreactivity
7 | QVQLVESGGGLVQAGGSLRLSCAASGFTFIHYGMGWYRQAPGKERELVAAITWRGDRTYADSVKGRFTISRDNAKNTVYLQMNSLKPEDTAVYYCAVGFYYFSSWYSYDYWGQGTQVTVSS | high polyreactivity
8 | QVQLVESGGGLVQAGGSLRLSCAASGSIFNYYAMGWYRQAPGKERELVAAITSSDGRTFYADSVKGRFTISRDNAKNKVYLQMNSLKPEDTAFYYCAAEWTSRYSTYEYWGQGTQVTVSS | low polyreactivity
9 | QVQLVESGGGLVQAGGSLRLSSAASGSTFFSYAMGWYRQAPGKERELVAAISWIDDGTYYADSVKGRFTISRDNAKNTVYLQMNSLKPEDTAVYYCAADIGAYRTWDYEYWGQGTQVTVSS | low polyreactivity
10 | QVQLVESGGGLVQAGGSLRLSCAASGRTFLWNAMGWYRQAPGKERELVAAISISGGNTNYADSVKGRFTISRDNAKNTVYLQMNSLKPEDTAVYYCNADPRAEPGDWSYEMDYWGQGTQVTVSS | low polyreactivity
11 | QDQLVESGGGLVQAGGSLRLSCAASGFTFGSYAMGWYRQAHGKERELVAAITASGGSTYYADSVKGRFTISRDNAKNTVYLQMNSLKPEDTAFYYCATRRYDGVAAFRMYYWGQGTQVTVSS | high polyreactivity
12 | QVQLVESGGGLVQAGGSLRLSCAASGRIFWPNAMGWYRQAPGKERELVAAISYSGGSTYYADSVKGRFTISRDNAKNTVYLQMNSLKPEDTAVYYCAATRSVRISGDGYLGYDYWGQGTQVTVSS | high polyreactivity
13 | QAQLQESGGSLVQAGGGLRLSCAAIGYISVGSVMGWYRQAPSKERELVASIDQGANTNYADSVKGRFTISRDNAKNNVYLQMNSLKPEDTAVYYCATETTYILNYWGQGTQVTVSS | low polyreactivity
14 | QVQLVESGGGLVQAGGSLRLSCAASGRTFANYAMGWYRQAPGKERELVAAITSGGRTYYADSVKGRFTISRDNAKNTVYLQMNSLKPEDTAVYYCAADYTYDYQNDYWGQGTQVTVSS | high polyreactivity
15 | QVQLVESGGGLVQAGGSLRLSCAASGRNFWVYAMGWYRQAPGKERELVAAISLSGGRTYYADSVKGRFTITRDKAKNNVNLQMNSLKPEDTAVYYCYAVYPKRGGGRIVDYWGQGTQVTVSS | high polyreactivity
16 | QVQLVESGGGVVQAGGSLRLSCAASGRIFARYTMGWYRQAPGKEREFVAGIRSSGGRTYYADSVKGRFTISRDTAKNTVYLQMNSLKPEDSAVYYCNAGGSWYFARYDYWGEGTQVTVSS | low polyreactivity
17 | QVQLVESGGGLVQAGGSLRLSCAASGIILRRYAMGWYRQAPGKERELVARISYRGGRTNYADSVKGRFTISRDNAKNTFYLEMNSLKPEDTAVYYCDAVDWYYHEGTAYNYWGQGTQVTVSS | high polyreactivity
18 | QVQLVESGRGLVQAGGSLRLSCAASGRTFYYYAMGWYRQAPGKERELVAAISRSGTRTYYADSVKGRFTISRDNAKNTVYLQMNSLKPEDTAVYYCAAVGAAGQDNYWGQGTQVTVSS | high polyreactivity
19 | QVHLVESGGGLVQAGGSLRLSCAASGSTFTLNAMGWYRQAPGKERELVAAITWDGGSTYYADSVKGRFTISRDNAKNTVYLQMNSLKPEDTAVYFCAADREFWWEVVYTYEYYYWGQGTQVTVSS | low polyreactivity
20 | QVQIVESGGGLVQAGGSLRLTCAASGRTFYGNAMGWYRQAPGKERDLVADISSRSSSTSYADSVKGRFTISRDNAKYSVYFQMNSLKPEDTAVYYCATRYGYRTWYGYNYWGQGTQVTVSS | high polyreactivity
21 | QVQLVESGGGLVQAGGSLRLSCAASGSIFSYYTMGWYRPAPGKERELVAAISYSGGRTYYADSVKGRFTISRDNAKNTVYLQMNSLKTEDTAVYYCSAKLLQLRGRGYEYWGQGTQVTVSS | high polyreactivity
22 | QVQLVESGGGLVQAGGSLRLSCAASGSIFRSNAMGWYRQAPGKERELVAAITSGTRKYYADSVKGRFTISRDNAKNTVYLQMNSLKPEDTAVYYCATKGSKYDRGYWGQGTQVTVSS | high polyreactivity

Row | Sequence | polyreactivity (PSR sort gate)
23 | QVQLVESGGGLVQAGGRLRLSCAASGTTFFLYAMGWYRQAPGKERELVASISDGSSTNYADSVKVRFTISRDNAKNTVYLQMNSLKPEDTAVYYCAADFERRRYDYWGQGTQVTVSS | low polyreactivity
24 | QVQLVESGGGLVQAGGSLRLSCAASGSTFKYYAMGWYRQAPGKERELVAAISYRGGRTYYADSVKGRFTISRDNAKNTVNLQMNSLKPEDTAVYYCAAVKPYYIQYQGSAGYDYWGQGTQVTVSS | high polyreactivity
25 | QVQLVESGGGLVQAGGSLRLSCAASGSISGIYAMGWYRQAPGKERELVAAISRGGSTNYADSVKGRFTISRDNAKNTVYLQMNSLKPEDTAVYYCAARTAYYPYRQRYYYWGQGTQVTVSS | high polyreactivity
26 | QVQHVESGGGLVQAGRSLRLTSAASGIIFSGYAIGWYRQAPGKERHLVAAISSRCGGTYYADSVKGRFTISRDNAKNTVYFPLNSLKPEDTALYYCAAKRPACIQYSYYYWGQGTQVTVSS | high polyreactivity
27 | QVQLVESGGGLVQAGGSLRLSCAASGRTFVGYAMGWYRQAPGKERELVAAIRNGGGTYYADSVKGRFTISRDNAKNTVYLQMNSLKPEDTAVYYCAARLPRSLKVGYYWGQGTQVTVSS | high polyreactivity
28 | QVQLVETGGGLVQAGGSLRLSCAASGITFVKYAMGWYRQAPGKERELVAAISGSGGSTSYADSVKGRFTISRDNAKNTVYLQMNSLKPEDTAVYYCNKAIVRYPKTRDYWGQGTQVTVSS | low polyreactivity
29 | QVQLQESGGGLVQAGGSLRLSCAASGNIVVADIMGWYRQAPGKERELVASITDGGSTNYADNVKGRFTISRDNAKNTVYLQMNSLIPEDTAVYYCAANAFPDIPTYFVYDYDYFYWGQGTQVTVSG | high polyreactivity
30 | QVQLVESGGGLVQAGGSLRLSCAASRSIFSWYAMGWYRTAPGTERELVAAITWTGGSTYYADSVKGRFTISRDNAKNTVYLQMKSLKTEDTAVYYCAARRVVYRKYGDRGRWYNYWGQGTQVTVSS | high polyreactivity
31 | QVQLVESGGGLVQAGGSLRFSCAASGRIFQYNAMGWYRQAPGKERELVASITSGVRTYYADSVKGRFTISRDNAKNTVYLQMNSLKPEDTAVYYCNAYSGGQYDYCGQGTQVTVSS | high polyreactivity
32 | QVQLVESGGGLDQAGGSLRLSCAASGFTLHSYALGWYRQAPGKERELVAAITTGGSTYYADSVKGRFTISRDNAKNTVYLQMNSLKPEDTAVYYCAAEDPGPYGGYVYWGQGTQVTVSS | low polyreactivity
33 | QVQLVESGGGLVQAGGSLRLSCAASGFTFRGYAMGWYRQAPGKERELVAVINTDGSTNYADSVKGRFTISRDNAKNTVYLQMNSLKPEDTAVYYCNAVRSSIGSDNDYWGQGTQVTVSS | low polyreactivity
34 | QVQLVESGGGLVQAGGSLRLSCAASGSTFFYYAMGWYRQAPGKERELVATIRGSAGRTYYADSVKGRFTISRDNAKNTVYLQMNSLKPEDTAVYYCARRYWPGSAYWIYDYWGQGTQVTVSS | high polyreactivity
35 | QVQLVESGGGLVQAGGSLRLSCAASGSIIQGYAMGWYRQAPGKERELVAVITTSGGSTYYADSVKGRFTISRDNAKNTVYLQMNSLKPEDTAVYYCAVGLLVYSRTYIGQAYFRYNYWGQGTQVTVSS | high polyreactivity
36 | QVQLVESGGGLVQAGGRLRISSAASGRIFAYYAMGWYRQAPGKERELVAANTTNGGGTYYADSVKGRFTISRDNAKNTVSLQMNSLNPEDPAFYYCATQFEGPAGFNNWGQGTQVTVSS | low polyreactivity
37 | QVQLVESGGGLVQAGGSLRLSCAASGLTFQNNARGWYRQAPGKERELVAAISDGGSTYYADSVKGRFTISRDNAKNTVYLQMNSLKPEDTGVYYCNADYGGWDYLYTSDQDNEYGYWGQGTQVTVSS | low polyreactivity
38 | QVQLVESGGGLVQAGGSLRLSCAASGSIFSGYTMGWYRQAPGKERELVAAITQRGTRTYYADSVKGRFTISRDNAKNTVYLQMNSLKPEDTAVYYCAADSVVVGSPGNDYWGQGTQVTVSS | high polyreactivity
39 | QVQLVESGGGIVQAGGSFRLSCAASGSIFVVYAMGWYRQAPGKERELVAAITSGGSTYYADSVKGRFTISRDNAKNTVYLQMNSLKPEDTAVYYCATTYRDGVYELTTFDYWGQGTQVTVSS | low polyreactivity
40 | QVQLVESGGGLVQAGGSLRLICAASRSNFFPYAMGWYRQAPGKERELVDTISGSTGRTYYADSVKGRFTISRDNAKNTVYLQMNSLKPQDTAVYYCATSVGYYLAPIKYDYWGQRTQVTVSS | low polyreactivity
41 | QVQLVESGGGLVQAGGSLRLSCAASGSTFGYYAMGWYRQAPGKERELVAAISWSGTRTYYADSVKGRFTISRDNAKNTVYLQMNSLKPEDTAVYYCAVRISRPREYYYWGQGTQVTVSS | high polyreactivity
42 | QVQLGESGGGLVQAGGSLRLSCAASGRIFSAYAMGWSRQEPGKERELVAAITRSGGSTYYADSVKGRFTISRDNAKNTVYLQMNSLKPEDTAVYYCAAGYFVSDAWSWYHWVEHGYWGQGTQVTVSS | high polyreactivity
43 | QVQLVESGGGLVQAGGSLRLSCAASGFIFGHNAMGWYRQAPGKQRELVAAITYSGGSTYYADSVKGRFTISRDNAKNTVYLQMNSLKPEDTAVSYSAASNQWSSTYLTYGYYYWGQGTQVTVSS | low polyreactivity

Reference: the nanobody polyreactivity screen of Harvey et al. (2022)
